The target in the experiment is T4 capsid (empty HocΔSocΔ head from the 10-amber.13-amber.HocΔ.SocΔ T4 mutant) (bacteriophage T4) (UniProt P19896). Briefly: co-sedimentation.
Substance Cpf1-Soc had a stoichiometry N (molecules per capsid) of 450.
Still for that read-out and setting: the same measure for Cre-Hoc: 95.
Same read-out and setting: with Cre-Soc the figure was 630.
For the substance GFP-Soc, the stoichiometry N (molecules per capsid) was 660.
On the same count and under the same terms, with NLS-Cas9-Soc the figure was 550.
For RGD-Hoc, the stoichiometry N (molecules per capsid) turned out to be 85.
Soc-RGD registered a stoichiometry N (molecules per capsid) of 710.
Soc-TAT: the stoichiometry N (copies per capsid) was determined as 520 and the stoichiometry N (molecules per capsid) was 750.
On to β-Gal-Soc, for which the stoichiometry N (molecules per capsid) was found to be 320.

For the origin of these results see article PMC10229621.
